Columns and labels:
[1] = substrate: CCCCCCCCC=O; assay: in vivo luminescence of E. coli cells, aldehyde titration, nonlinear fit; format: cell-based, Photorhabdus luminescens; details: whole E. coli K12 MG1655 pABX cells; apparent constant; cellular FMNH2 and O2
[2] = substrate: CCCCCC=O; assay: as above; format: cell-based, Photorhabdus luminescens; details: whole E. coli K12 MG1655 pABX cells; apparent constant; cellular FMNH2 and O2

B1: PlLuxAB (Photorhabdus luminescens) (protein)
chain: MKFGNFLLTYQPPQFSQTEVMKRLVKLGRISEECGFDTVWLLEHHFTEFGLLGNPYVAAAYLLGATKKLNVGTAAIVLPTAHPVRQLEDVNLLDQMSKGRFRFGICRGLYNKDFRVFGTDMNNSRALAECWYGLIKNGMTEGYMEADNEHIKFHKVKVNPAAYSRGGAPVYVVAESASTTEWAAQFGLPMILSWIINTNEKKAQLELYNEVAQEYGHDIHNIDHCLSYITSVDHDSIKAKEICRKFLGHWYDSYVNATTIFDDSDQTRGYDFNKGQWRDFVLKGHKDTNRRIDYSYEINPVGTPQECIDIIQKDIDATGISNICCGFEANGTVDEIIASMKLFQSDVMPFLKEKQRSLLY
In the case of B1, the Km [1] is reported as 0.025 ± 0.002 mM and the Km [2] is reported as 7 ± 2 mM.

From article doi:10.1101/2023.02.27.530324v2
